In paper PMC4610628 (Immunology, 2015):
“And” between values parts separate entries of the source, which are not always exact repeats. Equal values may be shown once. Square brackets hold non-standard residues; d marks the D form. Ends that are not written are not given here. * marks the point of attachment. Biotin = O=C1N[C@H]2[C@H](CS[C@H]2CCCCC(=O)*)N1; pY = N[C@@H](Cc1ccc(OP(=O)(O)O)cc1)C(=O)O

Columns and labels:
[1] = molecular target: T1, SHIP SH2 domain from SHIP-1, recombinant human (human, UniProt Q92835 5-101); assay: SPR; BIAcore 3000; biotinylated phosphopeptides immobilised on a streptavidin-coated CM5 chip (~30 RU), purified recombinant protein passed over; 37°; 10 mM HEPES pH 7·4, 150 mM KCl, 10 mM EDTA, 0·005% Tween 20; equilibrium data, one-site binding curve; conditions: both partners purified
T1 construct: SH2 domain of the inositol phosphatase SHIP-1, human; source: recombinant, produced in-house and purified on the day of the experiment
T1 sequence (looked up): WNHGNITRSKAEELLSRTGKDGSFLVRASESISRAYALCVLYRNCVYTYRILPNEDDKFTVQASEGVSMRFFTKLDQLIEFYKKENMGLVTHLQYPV

[2] = molecular target: T2, signalling lymphocyte activation molecule-associated protein (SAP), full length, recombinant human (human, UniProt O60880 1-128); assay: as above; conditions: both partners purified
T2 construct: SAP (SH2D1A), human, full length recombinant protein; called 'soluble monomeric recombinant human SAP' in the results; also called SH2D1A; source: recombinant, produced in-house and purified on the day of the experiment
T2 sequence (looked up): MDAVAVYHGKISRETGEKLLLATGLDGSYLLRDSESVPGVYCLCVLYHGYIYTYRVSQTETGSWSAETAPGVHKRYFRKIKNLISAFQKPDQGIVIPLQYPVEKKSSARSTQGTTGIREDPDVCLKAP

[3] = molecular target: CD229 more distal ITSM phosphopeptide (TIpYCS) (human); assay: SPR; data not shown; SAP on tyrosine phosphorylated CD229 distal ITSM peptide, 37°C, n = 3

B1: CD229M phosphopeptide (CD229 ITSM1, Met602 variant) (peptide)
peptide: Biotin-GENTM[pY]AQVFN
notes: CD229 (Ly9, SLAMF3), human, first (membrane proximal) ITSM, natural variant Met602 of SNP rs509749; also called CD229 Met602 ITSM; TMpYAQV; source: synthetic peptide; bought: Peptide Protein Research Ltd
[1]
  Kd: 23 to 92 µM and > 50 µM
[2]
  Kd: 1.7 µM and 1.5 to 2 µM

B2: CD229V phosphopeptide (CD229 ITSM1, Val602 variant) (peptide)
peptide: Biotin-GENTV[pY]AQVFN
notes: CD229 (Ly9, SLAMF3), human, first (membrane proximal) ITSM, natural variant Val602 of SNP rs509749; also called CD229 Val602 ITSM; TVpYAQV; source: synthetic peptide; bought: Peptide Protein Research Ltd
[1]
  Kd: 100 µM and 82 to 110 µM
[2]
  Kd: 3.4 µM and 2.8 µM and 4.4 µM

B3: CD244-ITSM2 phosphopeptide (peptide)
peptide: Biotin-GGSTI[pY]SMIQS
notes: CD244 (2B4, SLAMF4), human, ITSM2; source: synthetic peptide; bought: Peptide Protein Research Ltd
[1]
  Kd: 2.4 µM

B4: FcγRIIb-ITIM phosphopeptide (peptide)
peptide: Biotin-ADKVGAENTIT[pY]SLLMHPDA
notes: FcγRIIb, human, ITIM; source: synthetic peptide; bought: Peptide Protein Research Ltd
[1]
  Kd: 0.36 µM

B5: CD244-ITSM1 phosphopeptide (peptide)
peptide: Biotin-EFLTI[pY]EDVKD
notes: CD244 (2B4, SLAMF4), human, ITSM1; source: synthetic peptide; bought: Peptide Protein Research Ltd
[1]
  Kd: 25 µM

B6: signalling lymphocyte activation molecule-associated protein (SAP), full length, recombinant human (natural protein)
chain: T2 sequence (looked up)
[3]
  Kd: 0.1 µM
